Where a chain is given by its changes, count along the chain named.
B1: ABBV-8E12: monoclonal antibody whose brain/plasma ratio in humans is cited (antibody, chains of the INN, looked up, V domains shown)
VH: EVKVVESGGGLVQPGGSMKLSCVVSGFTFSNYWVNWVRQAPGKGLEWVAQIRLKSDNYATHYEESVKGRFTISRDDSKSSVYLQMNNLRAEDSGIYYCTNWEDYWGQGTTVTVSS
VL: DIVLTQSPDSLAVSLGERATISCRASQSVSTSRYSYIHWYQQKPGQPPKLLIKYASNLESGVPSRFSGSGSGTDFTLNIHPLEPEDFATYYCHHSWEIPLTFGQGTKLEIK
B2: Clone C05: anti-human CD38 antibody, HCVR SEQ ID NO: 34 and LCVR SEQ ID NO: 40 (antibody, V domains shown)
VH: EVQLVESGGSLVKPGGSLRLSCAASGFTFSNNYMNWVRQAPGKGLEWISSISGSSRYISYADFVKGRFTISRDNAKNSLYLQMNSLRAEDTAVYYCVRSSSSYYYSGNGMDVWGRGTLVTVSS
VL: QSVLTQPASVSGSPGQSITISCAGTSSDVGGSSYVSWYQQHPGKAPKLMIYYDSYRPSGVSNRFSGSKSGNTASLTISGLQAEDEADYYCSSNTYYSTRVFGGGTKL
modifications: HCVR C05; LCVR C05/C06
B3: Clone D10: anti-human CD38 antibody, HCVR SEQ ID NO: 38 and LCVR SEQ ID NO: 42 (antibody, V domains shown)
VH: B2 VH with N32S, Y33A, Y57D, S59Y
VL: B2 VL with S32N
modifications: HCVR D10; LCVR D07/D10
B4: Clone C06: anti-human CD38 antibody, HCVR SEQ ID NO: 35 and LCVR SEQ ID NO: 40 (antibody, V domains shown)
VH: B2 VH with N32S, Y33A, Y57N, S59Y, S101Y, Y103S, Y105G
VL: B2 VL
modifications: HCVR C06; LCVR C05/C06
B5: Clone D06: anti-human CD38 antibody, HCVR SEQ ID NO: 36 and LCVR SEQ ID NO: 41 (antibody, V domains shown)
VH: EVQLVESGGSLVKPGGSLRLSCAASGFTFSNYDMNWVRQAPGKGLEWISYIYGSSRDISYADFVKGRFTISRDNAKNSLYLQMNSLRAEDTAVYYCVRSSGYYFGYGMDVWGRGTLVTVSS
VL: B2 VL with S33Y, Y52S, Y95A
modifications: HCVR D06; LCVR D06
B6: Clone D07: anti-human CD38 antibody, HCVR SEQ ID NO: 37 and LCVR SEQ ID NO: 42 (antibody, V domains shown)
VH: B2 VH with N32S, Y33A, S50Y, Y57D, N108S
VL: B2 VL with S32N
modifications: HCVR D07; LCVR D07/D10

Experiments:
[1] = molecular target: CD38 (on cells of midbrain cultures from Wistar rat embryos) (UniProt Q64244); assay: cell-based or functional assay
[2] = system: dopaminergic neurons of the right substantia nigra pars compacta; assay: 6-OHDA mouse model, number of DA (TH+) neurons; type: in vivo, mice
Procedure: We aimed at determining whether B08 or D06 anti-CD38 antibodies were neuroprotective in vivo against neurodegeneration induced by oxidative stress. Mouse were administered with 6-hydroxydopamine (6-OHDA) in the right striatum. Since 6-OHDA is an analogue of dopamine, it is transported in dopaminergic neurons through the dopamine transporter, resulting in a specific degeneration and loss of dopaminergic neurons of the right substantia nigra pars compacta. It has been extensively used as a test system for novel symptomatic agents and for assessment of neuroprotective and neurorepair strategies (Galindo et al., 2014. In Kostrzewa (Ed.), Handbook of neurotoxicity (1st Ed., pp. 639-651). New York: Springer-Verlag). Since 6-OHDA is injected unilaterally in the right striatum, left striatum remains unaffected and each mouse is its own control.
Two in vivo mouse models were used: the 6-OHDA mouse model and the MPTP mouse model. For the 6-OHDA mouse model, the intoxication protocol was based on the unilateral stereotaxic intrastriatal injection of 6-OHDA in the right striatum. Intracerebral or intravenous injections of treatments were made either the day before the surgical stereotaxic procedure, concomitantly with 6-OHDA during the surgical stereotaxic procedure, or two days after 6-OHDA injection. Animals were sacrificed 8 days after the surgical stereotaxic procedure.
For unilateral 6-OHDA mouse model, animals were anesthetized using Chloral hydrate (400 mg/kg, i.p.) and placed into a stereotactic frame adapted to mice. The injection was performed using a Hamilton syringe at the following coordinates: AP: […], ML: […], DV: […] (corresponding to the atlas of Franklin and Paxinos, 1997). A total volume of 2.5 μL containing or not 5 μg of 6-OHDA diluted in PBS in the presence or the absence of test treatments was injected. The needle was left in place for 10 min after the injection before retraction.
Mice were sacrificed by cervical dislocation, and beheaded to collect brain and blood samples. The brain was fixed in a paraformaldehyde solution (4%) during 1 day before being soaked in sucrose (30%) during 2 days and then froze at −80° C. for further analysis.
Each brain was sliced using a freezing microtome at −30° C. The thickness of each slice was 20 μm. The slicing was done around the substantia nigra (80 slices from slice 51 to 63 according to Allen Mouse Brain).
Slices were then washed out in PBS and incubated with anti-Tyrosine Hydroxylase to stain dopaminergic neurons (Abcam®) during 2 days, at 4° C., with agitation. Slices were incubated with corresponding secondary antibody in the presence of DAPI (Sigma Aldrich®) to stain cell's nuclei during 2 hours at room temperature, and mounted on gelatin-coated slides.
The slices were imaged using a Nikon TE2000 U equipped with a Hamamatsu ORCE-ER camera or with a Zeiss Axio Vert.A1 equipped with an axiocam 503 mono camera. Image analysis was done using Image J software or Zen (Zeiss®).

[3] = in humans; cited from earlier work
[4] = system: midbrain dopaminergic (TH+) neurons; assay: MPP+ intoxication model in midbrain cell cultures, survival of DA (TH+) neurons; type: cell-based, Wistar rat; details: for neuroprotective effect against MPP+-induced DA cell death, compared with reference clone HB7: 3 μM MPP+ between 5 and 7 DIV, each clone and HB7 0.5 μg/mL; for neuroprotective effect in the presence of the lysosomal exocytosis inhibitor vacuolin-1: 3 μM MPP+, test substance 1 μg/mL, vacuolin-1 10 μM
Procedure: For this purpose, spontaneously occurring DA cell death was prevented by a treatment combining depolarizing concentrations of K^+ (30 mM) and MK801 (5 μM), a glutamate receptor antagonist used to prevent unwanted excitotoxic insult. The cultures were then exposed to 3 μM MPP between 5 and 7 days in vitro (DIV) to achieve a loss of approximately 50% of DA neurons.
Animals were treated in accordance with the Guide for the Care and Use of Laboratory Animals (National Research Council, 1996), European Directive 86/609, and the guidelines of the local institutional animal care and use committee. Cultures were prepared from the ventral mesencephalon of gestational age 15.5 Wistar rat embryos (Janvier Breeding Center, Le Genest St Isle, France). Dissociated cells in suspension obtained by mechanical trituration of midbrain tissue pieces were seeded at a density of 1.2-1.5×10^5 cells/cm^2 onto tissue culture supports precoated with 1 mg/mL polyethylenimine diluted in borate buffer pH 8.3 as described (Michel et al., 1997. J Neurochem. 69(4):1499-507). The cultures were then maintained in N5 medium supplemented with 5 mM glucose, 5% horse serum, and 0.5% fetal calf serum, except for the first 3 DIV, when the concentration of fetal calf serum was 2.5% to favor initial maturation of the cultures (Guerreiro et al., 2008. Mol Pharmacol. 74(4):980-9). They were fed daily by replacing 70% of the medium. Routinely, mesencephalic cultures were established on Nunc 24-well culture plates (Thermofischer Scientific, Rochester, N.Y.). Note that these cultures contain tyrosine hydroxylase (TH)^+ neurons that were exclusively dopaminergic (Traver et al., 2006. Mol Pharmacol. 70(1):30-40). TH^+ neurons represented approximately 1-2% of the total number of neuronal cells present in these cultures. The evaluation of the survival of DA neurons was performed by counting cells immunopositive for TH as described (Toulorge et al., 2011. Faseb J. 25(8):2563-73).
Treatments with MPP were performed in cultures where the spontaneous death process was prevented by long-term exposure to depolarizing concentrations of K^+ (30 mM), in the presence of the glutamate receptor antagonist MK801 (5 μM) to prevent unwanted excitotoxic insults as described previously (Douhou et al., 2001. J Neurochem. 78(1): 163-74). Treatments with MPP and potential neuroprotective molecules were carried out between 5 and 7 DIV.
The cultures were fixed for 12 min using 4% formaldehyde in Dulbecco's phosphate-buffered saline (PBS), then washed twice with PBS before an incubation step at 4° C. for 24 h with the following antibodies. A monoclonal anti-TH antibody diluted 1/5000 (ImmunoStar, Inc., Hudson, Wis.) was used to assess the survival of DA neurons. Antibody was diluted in PBS containing 0.2% Triton X-100. Detection of the primary antibodies was performed with an Alexa Fluor-488 conjugate of an anti-mouse IgG antibody.

[5] = system: human peripheral blood mononuclear cells (PBMCs); assay: IL-10 release from human PBMCs in vitro (ELISA); type: cell-based; details: PBMCs from 3 healthy donors; 10 μg/ml; LPS 500 ng/mL and interferon-γ 1B 100 ng/mL; 24 hours
Procedure: 3 healthy volunteers (Donor 1: Donor 2: Donor 3) served as blood donors. Venous blood (5 mL) was collected into heparinized tubes and immediately processed. Briefly, blood was diluted 1/1 in pre-warmed RPMI 1640 medium. PBMCs were isolated using gradient centrifugation in Ficoll solution (Sigma; 300×g, 30 min). Isolated PBMCs were re-suspended in 1 volume of pre-warmed RPMI 1640 medium and centrifuged again (300×g, 30 min). PBMCs were re-suspended in RPMI 1640 medium supplemented with 10% human serum (Sigma-Aldrich) at a concentration of 10^7 cells per mL. Cells were seeded in 96 well microplate (100 μL per well). Test compounds (10 μg/ml), LPS (500 ng/mL) and interferon-γ 1B (100 ng/mL) were added to PBMCs culture immediately after plating. After 24 hours, cell culture supernatants were collected and frozen at −80° C. for further processing.
IL-10 levels in cell culture supernatants were assayed using an ELISA human IL-10 kit (Ozyme®) according to the indications for use specified by the manufacturer.

Sequence of UniProt Q64244 (Q64244 whole entry): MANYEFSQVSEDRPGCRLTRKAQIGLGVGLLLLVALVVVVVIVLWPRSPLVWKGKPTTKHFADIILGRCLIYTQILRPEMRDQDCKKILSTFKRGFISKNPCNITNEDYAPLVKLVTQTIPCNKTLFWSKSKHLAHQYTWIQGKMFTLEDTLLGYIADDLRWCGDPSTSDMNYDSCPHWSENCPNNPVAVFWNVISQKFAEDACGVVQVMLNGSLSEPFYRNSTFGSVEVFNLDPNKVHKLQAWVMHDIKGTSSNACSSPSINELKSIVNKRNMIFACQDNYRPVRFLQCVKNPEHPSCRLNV

Row | Molecule | neuroprotective effect against MPP+-induced DA cell death, compared with reference clone HB7 [4] | neuroprotective effect in the presence of the lysosomal exocytosis inhibitor vacuolin-1 [4] | IL-10 release [5] | also measured
1 | murine sCD31 (from UniProt Q08481 18-585) (ligand) | – | – | – | EC50 of prevention of MPP+-induced DA cell loss (TH+ cell survival in midbrain cultures) [1]: 0.036 µg/mL
2 | Daratumumab: anti-CD38 antibody Daratumumab [reference compound] | – | – | – | neuroprotective effect in 6-OHDA model ([2]; 15 mg/kg iv one day before 6-OHDA injection): failed to demonstrate neuroprotective activity
3 | B1 | – | – | – | Brain/plasma ratio [3]: 0.385%
4 | B2 | stronger neuroprotective effect | antagonized | statistically significantly increased | –
5 | B3 | stronger neuroprotective effect | – | – | –
6 | B4 | – | antagonized | – | –
7 | B5 | stronger neuroprotective effect | antagonized | statistically significantly increased | protection of dopaminergic neurons of the right substantia nigra pars compacta ([2]; 0.1 mg/kg injected intracerebrally concomitantly with 6-OHDA): statistically significantly protected
8 | B6 | – | antagonized | statistically significantly increased | –

Reference: patent US20220089765A1, “CD31 COMPETITORS AND USES THEREOF” (ENCEFA, priority 2019, published 2022)
